Data: PMC5995566
Where two headings read alike, the source gives them in different places.

Key:
[1] = target: human S100A6 (human); experiment: ITC
[2] = target: human S100A6 (human); experiment: ITC; remark: listed apart in the source

peptide from Siah-interacting protein (SIP), sequence (Q9HB71 188-218): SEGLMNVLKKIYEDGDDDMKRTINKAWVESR

Work on “peptide from Siah-interacting protein (SIP) (from UniProt Q9HB71 188-218)” yielded a Kd [1] of 26 µM, a dH [1] of 2.9 kcal/mol and a fx comp [1] of 1.5. It also gave a Kd [2] of 20 µM.
